Positions count from the first letter of the chain named. In names and notes the source's numbering stands.

The chains are these.
B1: E62D (designed binder)
chain: SMEEEVEKAAKEYEKKKKEAIEKHLEKLKAKDKEAAERFLKELEEAAKEYAKDEAKTMSEEDAKRRAKKYKEKVLLSELSEEEQKEIKEAEEKLVRTILKYVEEAAK
B2: A63G (designed binder)
chain: B1 chain with D62E, A63G
B3: E61Q (designed binder)
chain: B1 chain with E61Q, D62E
B4: E91A (designed binder)
chain: B1 chain with D62E, E91A
B5: E14T (designed binder)
chain: B1 chain with E14T, D62E
B6: E60D (designed binder)
chain: B1 chain with E60D, D62E
B7: T57I (designed binder)
chain: B1 chain with T57I, D62E
B8: K31L (designed binder)
chain: B1 chain with K31L, D62E
B9: R96A (designed binder)
chain: B1 chain with D62E, R96A
B10: S1R (designed binder)
chain: B1 chain with S1R, D62E
B11: E45D (designed binder)
chain: B1 chain with E45D, D62E
B12: K73N (designed binder)
chain: B1 chain with D62E, K73N
B13: E4V (designed binder)
chain: B1 chain with E4V, D62E
B14: Y70D (designed binder)
chain: B1 chain with D62E, Y70D
B15: K69Y (designed binder)
chain: B1 chain with D62E, K69Y
B16: K33M (designed binder)
chain: B1 chain with K33M, D62E
B17: K23N (designed binder)
chain: B1 chain with K23N, D62E
B18: K107M (designed binder)
chain: B1 chain with D62E, K107M
B19: R66C (designed binder)
chain: B1 chain with D62E, R66C
B20: Y101P (designed binder)
chain: B1 chain with D62E, Y101P
B21: Y70G (designed binder)
chain: B1 chain with D62E, Y70G
B22: K41E (designed binder)
chain: B1 chain with K41E, D62E
B23: E78D (designed binder)
chain: B1 chain with D62E, E78D
B24: K73G (designed binder)
chain: B1 chain with D62E, K73G
B25: E34G (designed binder)
chain: B1 chain with E34G, D62E
B26: K8I (designed binder)
chain: B1 chain with K8I, D62E
B27: R66M (designed binder)
chain: B1 chain with D62E, R66M
B28: R38Q (designed binder)
chain: B1 chain with R38Q, D62E
B29: E81R (designed binder)
chain: B1 chain with D62E, E81R
B30: E3H (designed binder)
chain: B1 chain with E3H, D62E
B31: L94I (designed binder)
chain: B1 chain with D62E, L94I
B32: K73E (designed binder)
chain: B1 chain with D62E, K73E
B33: K31C (designed binder)
chain: B1 chain with K31C, D62E
B34: E14R (designed binder)
chain: B1 chain with E14R, D62E
B35: E91V (designed binder)
chain: B1 chain with D62E, E91V
B36: E49M (designed binder)
chain: B1 chain with E49M, D62E
B37: S80Q (designed binder)
chain: B1 chain with D62E, S80Q
B38: E83Q (designed binder)
chain: B1 chain with D62E, E83Q
B39: I98G (designed binder)
chain: B1 chain with D62E, I98G
B40: V102Q (designed binder)
chain: B1 chain with D62E, V102Q
B41: D53S (designed binder)
chain: B1 chain with D53S, D62E
B42: A63R (designed binder)
chain: B1 chain with D62E, A63R
B43: L25A (designed binder)
chain: B1 chain with L25A, D62E
B44: Y50K (designed binder)
chain: B1 chain with Y50K, D62E
B45: Y50I (designed binder)
chain: B1 chain with Y50I, D62E
B46: S59M (designed binder)
chain: B1 chain with S59M, D62E
B47: E12W (designed binder)
chain: B1 chain with E12W, D62E
B48: K56G (designed binder)
chain: B1 chain with K56G, D62E
B49: E81F (designed binder)
chain: B1 chain with D62E, E81F
B50: K23Q (designed binder)
chain: B1 chain with K23Q, D62E
B51: E34F (designed binder)
chain: B1 chain with E34F, D62E
B52: H24M (designed binder)
chain: B1 chain with H24M, D62E
B53: A35R (designed binder)
chain: B1 chain with A35R, D62E
B54: K8S (designed binder)
chain: B1 chain with K8S, D62E
B55: E37V (designed binder)
chain: B1 chain with E37V, D62E

This assay deals with T1, TNFR1 (Homo sapiens, UniProt P19438).
T1 chain: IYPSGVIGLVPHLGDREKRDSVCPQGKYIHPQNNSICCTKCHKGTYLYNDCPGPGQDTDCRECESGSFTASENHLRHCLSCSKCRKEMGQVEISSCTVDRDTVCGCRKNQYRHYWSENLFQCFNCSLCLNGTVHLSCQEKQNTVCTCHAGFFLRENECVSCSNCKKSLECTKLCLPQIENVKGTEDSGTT
In words: yeast display SC50.
Regarding B1, the “apparent Kd (screen)” value worked out at 0.446 nM.
For B2 the value was 11.4 nM; for B3, 1.4 nM; for B4, 7.07 nM.
With B5, the “apparent Kd (screen)” value was determined as 11.4 nM.
Turning to B6, the “apparent Kd (screen)” value is 1.27 nM.
For B7 the value was 0.49 nM.
Next, B8: 0.49 nM; B9: 3 nM.
For B10 the value was 0.869 nM; for B11, 0.539 nM.
For the molecule B12, the “apparent Kd (screen)” value worked out at 13.8 nM.
As to B13, the “apparent Kd (screen)” value was determined as 1.05 nM.
Next, B14: 5.84 nM; B15: 2.48 nM; B16: 0.593 nM.
Turning to B17, the “apparent Kd (screen)” value was 0.49 nM.
Next, B18: 1.4 nM; B19: 5.84 nM.
For B20 the value was 0.405 nM; for B21, 3.99 nM.
For B22 the value was 0.49 nM.
B23: the “apparent Kd (screen)” value was 1.86 nM.
Regarding B24, the “apparent Kd (screen)” value was 22.2 nM.
For B25 the value was 0.405 nM; for B26, 1.05 nM.
For B27 the value was 26.9 nM; for B28, 1.86 nM.
For B29 the value was 0.49 nM.
Consider B30, for which the “apparent Kd (screen)” value amounted to 1.86 nM.
Next, B31: 0.405 nM.
As to B32, the “apparent Kd (screen)” value turned out to be 11.4 nM.
For B33, the “apparent Kd (screen)” value came out at 1.27 nM.
Next, B34: 5.31 nM; B35: 7.07 nM; B36: 12.5 nM.
On to B37, for which the “apparent Kd (screen)” value came to 1.27 nM.
For B38 the value was 0.593 nM.
Next, B39: 6.43 nM; B40: 0.208 nM.
Next, B41: 0.446 nM.
Turning to B42, the “apparent Kd (screen)” value stood at 6.43 nM.
Next, B43: 0.593 nM.
Next, B44: 3.99 nM.
For B45 the value was 0.0802 nM; for B46, 1.69 nM; for B47, 1.54 nM.
On to B48, for which the “apparent Kd (screen)” value was 7.07 nM.
For B49, the “apparent Kd (screen)” value is 0.593 nM.
B50: the “apparent Kd (screen)” value was determined as 0.446 nM.
With B51, the “apparent Kd (screen)” value came to 0.446 nM.
As to B52, the “apparent Kd (screen)” value turned out to be 0.49 nM.
Next, B53: 0.539 nM; B54: 1.4 nM; B55: 0.539 nM.

Source of the values: publication PMC12416549 (2024).
